From publication PMC10258763, “Atomic model for core modifying region of human fatty acid synthase in complex with Denifanstat” (Nature Communications, 2023)

Biological target: the molecule itself
Assay: SEC + other: cryo-EM 2D class averages; truncated modifying region purified by Ni-NTA and Superdex 200 increase 10/300; 2D classes of elution fraction 3

B1: isolated modifying region of hFASN expressed and purified as an independent construct (G855 to G2511) (domain or fragment, human, UniProt P49327 855-2511, looked up)
chain: GSPSAAIYNIDTSSESPDHYLVDHTLDGRVLFPATGYLSIVWKTLARALGLGVEQLPVVFEDVVLHQATILPKTGTVSLEVRLLEASRAFEVSENGNLVVSGKVYQWDDPDPRLFDHPESPTPNPTEPLFLAQAEVYKELRLRGYDYGPHFQGILEASLEGDSGRLLWKDNWVSFMDTMLQMSILGSAKHGLYLPTRVTAIHIDPATHRQKLYTLQDKAQVADVVVSRWLRVTVAGGVHISGLHTESAPRRQQEQQVPILEKFCFTPHTEEGCLSERAALQEELQLCKGLVQALQTKVTQQGLKMVVPGLDGAQIPRDPSQQELPRLLSAACRLQLNGNLQLELAQVLAQERPKLPEDPLLSGLLDSPALKACLDTAVENMPSLKMKVVEVLAGHGHLYSRIPGLLSPHPLLQLSYTATDRHPQALEAAQAELQQHDVAQGQWDPADPAPSALGSADLLVCNCAVAALGDPASALSNMVAALREGGFLLLHTLLRGHPLGDIVAFLTSTEPQYGQGILSQDAWESLFSRVSLRLVGLKKSFYGSTLFLCRRPTPQDSPIFLPVDDTSFRWVESLKGILADEDSSRPVWLKAINCATSGVVGLVNCLRREPGGNRLRCVLLSNLSSTSHVPEVDPGSAELQKVLQGDLVMNVYRDGAWGAFRHFLLEEDKPEEPTAHAFVSTLTRGDLSSIRWVCSSLRHAQPTCPGAQLCTVYYASLNFRDIMLATGKLSPDAIPGKWTSQDSLLGMEFSGRDASGKRVMGLVPAKGLATSVLLSPDFLWDVPSNWTLEEAASVPVVYSTAYYALVVRGRVRPGETLLIHSGSGGVGQAAIAIALSLGCRVFTTVGSAEKRAYLQARFPQLDSTSFANSRDTSFEQHVLWHTGGKGVDLVLNSLAEEKLQASVRCLATHGRFLEIGKFDLSQNHPLGMAIFLKNVTFHGVLLDAFFNESSADWREVWALVQAGIRDGVVRPLKCTVFHGAQVEDAFRYMAQGKHIGKVVVQVLAEEPEAVLKGAKPKLMSAISKTFCPAHKSYIIAGGLGGFGLELAQWLIQRGVQKLVLTSRSGIRTGYQAKQVRRWRRQGVQVQVSTSNISSLEGARGLIAEAAQLGPVGGVFNLAVVLRDGLLENQTPEFFQDVCKPKYSGTLNLDRVTREACPELDYFVVFSSVSCGRGNAGQSNYGFANSAMERICEKRRHEGLPGLAVQWGAIGDVGILVETMSTNDTIVSGTLPQRMASCLEVLDLFLNQPHMVLSSFVLAEKAAAYRDRDSQRDLVEAVAHILGIRDLAAVNLDSSLADLGLDSLMSVEVRQTLERELNLVLSVREVRQLTLRKLQELSSKADEASELACPTPKEDGLAQQQTQLNLRSLLVNPEGPTLMRLNSVQSSERPLFLVHPIEGSTTVFHSLASRLSIPTYGLQCTRAAPLDSIHSLAAYYIDCIRQVQPEGPYRVAGYSYGACVAFEMCSQLQAQQSPAPTHNSLFLFDGSPTYVLAYTQSYRAKLTPGCEAEAETEAICFFVQQFTDMEHNRVLEALLPLKGLEERVAAAVDLIIKSHQGLDRQELSFAARSFYYKLRAAEQYTPKAKYHGNVMLLRAKTGGAYGEDLGADYNLSQVCDGKVSVHVIEGDHRTLLEGSGLESIISIIHSSLAEPRVSVREG
notes: human fatty acid synthase (FASN), residues G855 to G2511, modifying region (DH, ΨME, ΨKR, ER, KR, ACP, TE); also called truncated modifying region; truncated hFASN modifying region; source: HEK293F, transfected (pcDNA3.1, gene synthesized by GenScript), purified (Ni-NTA, Superdex 200)
stoichiometry N: 2
